Legend:
[1] = target: myc-tagged full-length mAKAPβ with an internal deletion of residues 1257–1886; assay: co-IP
His-mAKAP 1286–1833 = assay: SPR

Substance | percent reduction of RSK3 binding against full-length mAKAPβ [1] | fold decrease of binding affinity against unphosphorylated RSK3 (His-mAKAP 1286–1833)
HA-tagged RSK3 (type 3 p90 ribosomal S6 kinase) (from UniProt Q15349 1-733) (enzyme) | > 85% | –
His-RSK3, full-length, ERK and PDK1-phosphorylated (from UniProt Q15349 1-733) (enzyme) | – | 8 fold
His-RSK3, full-length, ERK-phosphorylated (from UniProt Q15349 1-733) (enzyme) | – | 5 fold
